The source of these data is patent US20250137008A1 (UNIVERSITY OF GLASGOW, published 2025).

B5: full-length GORK channel (GORK-Cub bait fusion) (other)
chain: MGRLRRRQEIIDHEEEESNDDVSSRRGKLSLAETFRWLDSSEHRRIETDGHNDYKYIIHPKNRWYKAWEMFILVWAIYSSLFTPMEFGFFRGLPERLFVLDIVGQIAFLVDIVLQFFVAYRDTQSYRTVYKPTRIAFRYLKSHFLMDFIGCFPWDLIYKASGKHELVRYLLWIRLFRVRKVVEFFQRLEKDTRINYLFTRILKLLFVEVYCTHTAACIFYYLATTLPPEQEGYTWIGSLKLGDYSYENFREIDLWKRYTTALYFAIVTMATVGYGDIHAVNLREMIFVMIYVSFDMVLGAYLIGNVTALIVKGSNTERFRDKMNDLISFMNRKKLGRDLRSQITGHVRLQYDSHYTDTVMLQDIPASIRAKIAQLLYLPYIKKVPLFKGCSTEFINQIVIRLHEEYFLPGEVITEQGNVVDHLYFVCEGLLEALVTKTDGSEESVTLLGPHTSFGDISIICNISQPFTVRVCELCHLLRLDKQSFSNILEIYFHDGRTILNNIMEEKESNDRIKKLESDIVIHIGKQEAELALKVNSAAFQGDFYQLKSLIRSGADPNKTDYDGRSPLHLAACRGYEDITLFLIQEGVDVNLKDKFGHTPLFEAVKAGQEGVIGLLVKEGASFNLEDSGNFLCTTVAKGDSDFLKRLLSSGMNPNSEDYDHRTPLHVAASEGLFLMAKMLVEAGASVISKDRWGNSPLDEARLCGNKKLIKLLEDVKNAQSSIYPSSLRELQEERIERRKCTVFPFHPQEAKEERSRKHGVVVWVPSNLEKLIVTAAKELGLSDGASFVLLSEDQGRITDIDMISDGHKLYMISDTTDQT
notes: Full-length channel expressed in yeast as a Cub bait fusion (mbSUS) and in vivo as an rBiFC partner; also called full-length GORK channel Y-Cub fusion; Guard cell Outward Rectifying Potassium (K+) channel

Data set [1] deals with the molecule itself. The experiment in a line: gel filtration of soluble N-termini (self-association). On the technique in general: Size exclusion chromatography separates by hydrodynamic size, large species first.
Data set [2] deals with B5. Description: rBiFC in vivo, confocal imaging.
Data set [3] has as its target B5. The experiment in a line: mbSUS, GORK-Cub bait.
Data set [4] concerns the target T1, KAT1 voltage sensor domain (kVSD) (UniProt Q39128 1-200, limits assumed).
T1 construct: domain: voltage sensor domain (VSD); Nub-X prey in mbSUS; rBiFC partner; also called KAT1 VSD; VSD of KAT1
T1 sequence (looked up): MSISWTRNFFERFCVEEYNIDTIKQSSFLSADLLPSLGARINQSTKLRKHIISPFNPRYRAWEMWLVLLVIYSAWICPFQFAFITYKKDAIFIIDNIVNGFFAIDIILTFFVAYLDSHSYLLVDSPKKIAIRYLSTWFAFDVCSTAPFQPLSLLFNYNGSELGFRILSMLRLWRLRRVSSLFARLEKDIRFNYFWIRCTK
The experiment in a line: mbSUS, GORK-Cub bait.

The next data set concerns the target T2, full-length KAT1 (UniProt Q39128 1-677, limits assumed).
T2 construct: whole, on cells; Nub-X prey in mbSUS in yeast
Description: mbSUS, GORK-Cub bait.

B1: kVSD N-terminus (soluble) (other, UniProt Q39128 1-63, looked up)
chain: MSISWTRNFFERFCVEEYNIDTIKQSSFLSADLLPSLGARINQSTKLRKHIISPFNPRYRAWE
notes: domain: cytosolic N-terminus; Gel filtration construct; also called kVSD N-termini; KAT1 N-terminus
In the case of B1, in data set [1], the binding result is listed as “no binding”.

B2: gVSD^NP N-terminus (soluble) (other)
chain: MGRLRRRQEIIDHEEEESNDDVSSRRGKLSLAKTFRWLKSSKKRRIKTKGKNKYKYIIKPKNRWYKAWE
notes: also called gVSDNP N-termini
In the case of B2, the binding result in data set [1] is “no binding”.

B3: gVSD^NP (other)
chain: MGRLRRRQEIIDHEEEESNDDVSSRRGKLSLAKTFRWLKSSKKRRIKTKGKNKYKYIIKPKNRWYKAWEMFILVWAIYSSLFTPMEFGFFRGLPERLFVLDIVGQIAFLVDIVLQFFVAYRDTQTYRTVYKPTRIAFRYLKSHFLMDFIGCFPWDLIYKASGKHELVRYLLWIRLFRVRKVVEFFQRLEKDTRINYLFTRILK
notes: All negatively-charged amino acids (Asp, Glu) of the N-terminal charged domains replaced with Lys
As to B3, in data set [2], the binding result is “no binding”.

B4: gVSD^PN (other)
chain: MGRLRRRQEIIDHEEEESNDDVSSDDGDLSLAETFDWLDSSEDDDIETDGDNDYDYIIDPKNRWYKAWEMFILVWAIYSSLFTPMEFGFFRGLPERLFVLDIVGQIAFLVDIVLQFFVAYRDTQTYRTVYKPTRIAFRYLKSHFLMDFIGCFPWDLIYKASGKHELVRYLLWIRLFRVRKVVEFFQRLEKDTRINYLFTRILK
notes: All positively-charged residues of the N-terminal charged domains replaced with negatively-charged residues
Take B4: the binding result in data set [3] is “no binding”.
B5: the binding result (in data set [4]; with full-length KAT1) was “no binding” in each case.
